Data set [1] has as its target SeM58-R481D (Synechococcus elongatus PCC 7942) (UniProt Q03513). The experiment in a line: SEC-MALS; 2 mg/ml protein; 50 mM Tris-HCl pH 8.0/150 mM KCl or 50 mM Tris-HCl pH 8.0/500 mM KCl/5 mM DTT; 25 °C; oligomeric state in solution. A general note: SEC sorts molecules by how far they enter the pores of the column.
For data set [2], the target named is SeM58-R367D (Synechococcus elongatus PCC 7942) (UniProt Q03513). The data set is described as above.
In data set [3] the target is T1, M58(D172K) (Synechococcus elongatus PCC 7942, UniProt Q03513 1-539, D172K).
T1 construct: CcmM (M58), Synechococcus elongatus PCC 7942, point mutant in the γCAL domain (head-to-head salt bridge); also called SeM58-D172K; M58oxD172K; source: E. coli BL21 (DE3), purified as wild-type M58; not shown: His6-ubiquitin, N-terminal, cleaved
T1 sequence (looked up): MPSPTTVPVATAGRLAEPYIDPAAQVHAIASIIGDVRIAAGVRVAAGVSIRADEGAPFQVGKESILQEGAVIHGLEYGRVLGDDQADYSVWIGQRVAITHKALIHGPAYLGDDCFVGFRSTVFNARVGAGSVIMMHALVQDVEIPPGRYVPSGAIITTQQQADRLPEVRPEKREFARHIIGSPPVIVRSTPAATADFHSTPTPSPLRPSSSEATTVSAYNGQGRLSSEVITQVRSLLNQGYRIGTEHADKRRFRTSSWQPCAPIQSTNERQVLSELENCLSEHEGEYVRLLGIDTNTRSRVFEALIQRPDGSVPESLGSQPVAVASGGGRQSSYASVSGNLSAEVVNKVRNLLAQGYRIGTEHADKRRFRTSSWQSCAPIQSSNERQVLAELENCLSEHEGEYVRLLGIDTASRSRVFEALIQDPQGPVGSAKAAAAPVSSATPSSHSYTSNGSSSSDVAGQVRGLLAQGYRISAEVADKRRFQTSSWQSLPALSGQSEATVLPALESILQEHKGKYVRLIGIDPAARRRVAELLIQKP
The experiment in a line: turbidity assay; absorbance at 340 nm, 25 °C, 50 mM Tris-HCl pH 8.0, 10 mM Mg(OAc)2; 0.5 μM CcaA or its mutants (0–1.25 μM for the apparent KD) with 0.5 μM M58 or its truncations and mutants, 0.75 μM γCAL198 or 2.25 μM M35; 100 mM KCl (50–400 mM in the salt series); reducing (5 mM DTT) or oxidizing; apparent; a protein alone: association of its oligomers into condensates. The conditions noted are these: both partners purified.

Data set [4] concerns the target T2, CcmM full-length protein M58 of Synechococcus elongatus PCC 7942 (Synechococcus elongatus PCC 7942, UniProt Q03513 1-539).
T2 construct: CcmM (M58, ~58 kDa), Synechococcus elongatus PCC 7942; full-length ccmM gene amplified from genomic DNA; SeCcmM (1-539); Used reduced (M58red, 5 mM DTT) or oxidized (M58ox, 2 mM H2O2; disulfides in SSUL modules); For microscopy labelled at the N terminus with Alexa532 and mixed 1:10 with unlabelled protein; also called SeM58; M58red; source: E. coli BL21 (DE3), purified (Ni-NTA, H6Ub cleaved with …)
T2 sequence (looked up): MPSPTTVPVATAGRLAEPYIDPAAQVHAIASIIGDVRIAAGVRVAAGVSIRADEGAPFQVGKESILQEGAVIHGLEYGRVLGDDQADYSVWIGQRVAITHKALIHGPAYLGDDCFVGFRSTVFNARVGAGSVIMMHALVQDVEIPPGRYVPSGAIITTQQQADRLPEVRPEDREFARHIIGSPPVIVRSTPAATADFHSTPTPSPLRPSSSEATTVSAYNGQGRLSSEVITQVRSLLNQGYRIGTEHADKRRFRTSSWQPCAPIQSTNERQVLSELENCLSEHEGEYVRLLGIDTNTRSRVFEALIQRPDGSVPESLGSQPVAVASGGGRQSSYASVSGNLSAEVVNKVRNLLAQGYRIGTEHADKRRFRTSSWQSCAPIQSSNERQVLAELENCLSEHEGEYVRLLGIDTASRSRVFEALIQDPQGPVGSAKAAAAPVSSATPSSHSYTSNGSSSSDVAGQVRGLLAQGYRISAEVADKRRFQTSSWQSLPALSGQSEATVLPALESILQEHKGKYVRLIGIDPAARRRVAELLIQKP
The description is as above. Conditions: both partners purified.

The target in data set [5] is T3, M58(R164D) (Synechococcus elongatus PCC 7942, UniProt Q03513 1-539, R164D).
T3 construct: CcmM (M58), Synechococcus elongatus PCC 7942, point mutant in the γCAL domain (head-to-head salt bridge); also called SeM58-R164D; M58oxR164D; source: E. coli BL21 (DE3), purified as wild-type M58; not shown: His6-ubiquitin, N-terminal, cleaved
T3 sequence (looked up): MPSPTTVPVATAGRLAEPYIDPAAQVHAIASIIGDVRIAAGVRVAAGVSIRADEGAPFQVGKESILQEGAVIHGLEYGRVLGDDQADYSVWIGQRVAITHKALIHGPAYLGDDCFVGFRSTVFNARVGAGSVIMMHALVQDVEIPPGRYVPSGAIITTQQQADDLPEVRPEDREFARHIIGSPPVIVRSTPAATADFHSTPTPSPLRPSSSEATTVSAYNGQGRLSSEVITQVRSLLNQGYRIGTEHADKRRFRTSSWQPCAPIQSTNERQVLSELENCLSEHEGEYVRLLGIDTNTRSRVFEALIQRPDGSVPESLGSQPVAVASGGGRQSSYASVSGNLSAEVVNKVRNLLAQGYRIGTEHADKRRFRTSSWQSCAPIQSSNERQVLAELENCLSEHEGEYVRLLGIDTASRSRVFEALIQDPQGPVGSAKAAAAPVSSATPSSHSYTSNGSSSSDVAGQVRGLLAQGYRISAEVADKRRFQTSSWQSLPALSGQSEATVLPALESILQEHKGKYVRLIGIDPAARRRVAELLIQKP
The description is as above. The conditions noted are these: both partners purified.

Data set [6] deals with β-class carbonic anhydrase CcaA of Synechococcus elongatus PCC 7942 (Synechococcus elongatus PCC 7942) (UniProt P27134). The experiment in a line: SEC-MALS; 2 mg/ml protein; 50 mM Tris-HCl pH 8.0/150 mM KCl or 50 mM Tris-HCl pH 8.0/500 mM KCl/5 mM DTT; 25 °C; oligomeric state in solution.
In data set [7] the target is T2, CcmM full-length protein M58 of …. Nature of the data set: turbidity assay; 0.25 μM Rubisco (RbcL8S8) with increasing M58red, M58ox, CCTRIM35red or CCTRIM35ox at 50 mM KCl; or with 0.25 μM M58, 0.25 μM CCTRIM35 or 0.75 μM M35 at 50 and 100 mM KCl; reducing or oxidizing; apparent. Conditions: both partners purified.
Data set [8] deals with the molecule itself. The experiment in a line: turbidity assay; one protein alone (homodemixing: association of trimers into a homocondensate); 50 mM KCl; M58ox 0.5–3.0 μM, M58red 5 and 6 μM; truncations and point mutants oxidized at 3 μM; M58-C4S and CCTRIM35 at 5 μM; 25 °C.

One may read the stoichiometry N as the number of molecules, sites or subunits per partner or assembly. For “SeM58-R481D (from UniProt Q03513 1-539) (natural protein)”, the stoichiometry N in data set [1] is 3.
As to “SeM58-R367D (from UniProt Q03513 1-539) (natural protein)”, the stoichiometry N in data set [2] was found to be 3.

B1: β-class carbonic anhydrase CcaA of Synechococcus elongatus PCC 7942 (enzyme, UniProt P27134 1-272, looked up)
chain: MRKLIEGLRHFRTSYYPSHRDLFEQFAKGQHPRVLFITCSDSRIDPNLITQSGMGELFVIRNAGNLIPPFGAANGGEGASIEYAIAALNIEHVVVCGHSHCGAMKGLLKLNQLQEDMPLVYDWLQHAQATRRLVLDNYSGYETDDLVEILVAENVLTQIENLKTYPIVRSRLFQGKLQIFGWIYEVESGEVLQISRTSSDDTGIDECPVRLPGSQEKAILGRCVVPLTEEVAVAPPEPEPVIAAVAAPPANYSSRGWLAPEQQQRIYRGNAS
notes: CcaA (~30 kDa), Synechococcus elongatus PCC 7942; ccaA gene amplified from genomic DNA; 272 residues (last 17 are 256-272); For microscopy labelled at the N terminus with Alexa405 and mixed 1:10 with unlabelled protein; also called CcaAAF4; source: E. coli BL21 (DE3), purified (Ni-NTA, H6Ub cleaved, SEC); not shown: His6-ubiquitin, N-terminal, cleaved
As to B1, the binding result in data set [3] and in data set [5] was “binds” throughout. The Kd in data set [4] is roughly 200 nM. Also, the stoichiometry N in data set [6] stood at 4.

B2: Rubisco holoenzyme (RbcL8S8) of Synechococcus elongatus PCC 7942 (complex)
chain 1: MPKTQSAAGYKAGVKDYKLTYYTPDYTPKDTDLLAAFRFSPQPGVPADEAGAAIAAESSTGTWTTVWTDLLTDMDRYKGKCYHIEPVQGEENSYFAFIAYPLDLFEEGSVTNILTSIVGNVFGFKAIRSLRLEDIRFPVALVKTFQGPPHGIQVERDLLNKYGRPMLGCTIKPKLGLSAKNYGRAVYECLRGGLDFTKDDENINSQPFQRWRDRFLFVADAIHKSQAETGEIKGHYLNVTAPTCEEMMKRAEFAKELGMPIIMHDFLTAGFTANTTLAKWCRDNGVLLHIHRAMHAVIDRQRNHGIHFRVLAKCLRLSGGDHLHSGTVVGKLEGDKASTLGFVDLMREDHIEADRSRGVFFTQDWASMPGVLPVASGGIHVWHMPALVEIFGDDSVLQFGGGTLGHPWGNAPGATANRVALEACVQARNEGRDLYREGGDILREAGKWSPELAAALDLWKEIKFEFETMDKL
chain 2: MSMKTLPKERRFETFSYLPPLSDRQIAAQIEYMIEQGFHPLIEFNEHSNPEEFYWTMWKLPLFDCKSPQQVLDEVRECRSEYGDCYIRVAGFDNIKQCQTVSFIVHRPGRY
Regarding B2, in data set [7], the Kd is roughly 70 nM.

B3: γCAL-2S (domain or fragment, Synechococcus elongatus PCC 7942, UniProt Q03513 1-429, looked up)
chain: MPSPTTVPVATAGRLAEPYIDPAAQVHAIASIIGDVRIAAGVRVAAGVSIRADEGAPFQVGKESILQEGAVIHGLEYGRVLGDDQADYSVWIGQRVAITHKALIHGPAYLGDDCFVGFRSTVFNARVGAGSVIMMHALVQDVEIPPGRYVPSGAIITTQQQADRLPEVRPEDREFARHIIGSPPVIVRSTPAATADFHSTPTPSPLRPSSSEATTVSAYNGQGRLSSEVITQVRSLLNQGYRIGTEHADKRRFRTSSWQPCAPIQSTNERQVLSELENCLSEHEGEYVRLLGIDTNTRSRVFEALIQRPDGSVPESLGSQPVAVASGGGRQSSYASVSGNLSAEVVNKVRNLLAQGYRIGTEHADKRRFRTSSWQSCAPIQSSNERQVLAELENCLSEHEGEYVRLLGIDTASRSRVFEALIQDPQGPV
notes: C-terminal truncation of CcmM (M58), Synechococcus elongatus PCC 7942, with the γCAL domain and two SSUL modules, residues 1-429; also called SeγCAL-2S(1–429); γCAL-2Sox; source: E. coli BL21 (DE3), purified as M58; not shown: His6-ubiquitin, N-terminal, cleaved
As for B3, the binding result in data set [8] was “binds”.

Source of the values: PMC8580825, “Scaffolding protein CcmM directs multiprotein phase separation in β-carboxysome biogenesis” (Nature Structural & Molecular Biology, 2021).
